For 167 variants, self-cleavage results are on record in the RNAGym collection of RNA variant scans (doi:10.7554/elife.90254).

B1: LINE1-full (parent)
chain: UACGUAGGUGGUUUUCCCCUGAUAGUGCUAAGGGGGCCUGGAAGUUUGGACUGGGCAGAGCUCAACACAGCGUGGCAAAGUGGCUGUGGCUAGACUGCCUCUCUGGAUUCCUCGUCACUCAGCAGGGCAUCUCUGAGAGAAAUGCC

Variants of B1 are the subject of this series. Kind of series: self-cleavage, relative activity (ratio to wild type); higher = more cleavage; in vitro, sequencing; the parent is a self-cleaving ribozyme.
With A31U A141G, the self-cleavage was found to be 1.01. To A31U U85A belongs 0.07; to A31U U85C, 0.28. To A30U U102A belongs 0.58. With A30U U102C the figure was 0.75; with U29C U100A, 1.42. With A30G A42U, the self-cleavage was determined as 1.06.

A31G C90A: the self-cleavage was 0.12. In the case of A31C U134A, the self-cleavage was found to be 1.26.

As for A31U A117U, the self-cleavage is 0.95.

Consider A31U A117G, for which the self-cleavage stood at 1.2. To A30G G35A belongs 1.11; to A31G A64G, 0.31. Turning to A30G A142G, the self-cleavage was found to be 1.07. With A30G A142U the figure was 0.99; with U29G A78G, 0.87. Turning to A31C U47A, the self-cleavage turned out to be 1.12. Consider A31U U46C, for which the self-cleavage was 1.05. For A31U U47A, the self-cleavage is 0.77. To A31U A129G belongs 1.25. To A31G A79U belongs 2.64; to A30G A78U, 1.44. To A30G A78G belongs 1.34; to A31G G32U, 1.13; to A31G G32A, 1.25. As for G32A U62C, the self-cleavage was 0.07.

Regarding G32A U62A, the self-cleavage came to 0.08. With A30G U87C the figure was 0.11. Consider A31G G83A, for which the self-cleavage turned out to be 0.69. With A31U G32A the figure was 1.56; with A30G U134A, 1.05. With A30G U134C the figure was 1.13; with A30G C71U, 0.85; with A30U U47G, 0.8.

Regarding A30U U47C, the self-cleavage amounted to 1.07.

Regarding A31G G44A, the self-cleavage worked out at 2.09. To A31G A138U belongs 1.05; to A30G U102G, 1.84. Turning to U29G A107G, the self-cleavage was 2.23. To G32A U73C belongs 1.49; to A31C U45C, 1.84; to A31U U130A, 1.53. Take A31U C37A: the self-cleavage was determined as 1.53. With A30U C37G the figure was 0.81.

Take A30G A129U: the self-cleavage was 0.89. With A31G U130A the figure was 1.26; with A31G U130C, 1.45; with A31G U39C, 1.17.

On to A30G A124U, for which the self-cleavage is 1.44. With G32A A67U the figure was 0.09; with A30G C56U, 0.84; with A30G G75A, 1.05.

For the variant G32A A78G, the self-cleavage amounted to 0.47. Regarding A31U C131U, the self-cleavage was 1.06.

For A30U A64U, the self-cleavage came out at 0.51. With A30G G41U the figure was 1.66; with A30U G54U, 0.84. With G32A A94G the figure was 0.36. To A30U G34A belongs 1.13. A30G C99U: the self-cleavage was determined as 1.03.

A31G A129G: the self-cleavage was 1.05. In the case of A31G G127C, the self-cleavage is 2.39. To A31G G105A belongs 1.29. With A31G G105U the figure was 1.27.

For A31U G144U, the self-cleavage was found to be 1.03. As for A31U G144A, the self-cleavage worked out at 0.96. As to U29G U115C, the self-cleavage was 0.63. For the variant A30U C95A, the self-cleavage turned out to be 0.03. To A31C A129U belongs 1.51; to A31U G82U, 0.74; to A31U U143A, 0.78. With A31U A69G the figure was 0.75. With A30G A69C the figure was 0.26; with A30G A69G, 0.55; with A30G G139A, 1.31. Take A30C U52C: the self-cleavage came to 0.33. With G32A A57U the figure was 0.16; with A31G A140G, 1.79. With A31G U45C the figure was 1.07; with A31G U45A, 0.85; with A31G G126A, 1.32.

With G32A A92U, the self-cleavage was 0.75.

Take A30G U52A: the self-cleavage came to 1.21.

With A30G U52C, the self-cleavage turned out to be 1.53. To A30G A77G belongs 2.12; to A31C G54A, 1.02; to U29C U62A, 0.03.

Consider A30G G125U, for which the self-cleavage was determined as 1.47.

For the variant A31U A79G, the self-cleavage came out at 0.55.

Consider A31U A79U, for which the self-cleavage worked out at 2.19. Turning to A30G C84A, the self-cleavage is 0.22. With A30G C84G the figure was 0.17; with A30U A129U, 1.38; with A30U A129G, 0.58.

Regarding A31C A59C, the self-cleavage was determined as 0.61. With A31C A59G the figure was 0.26.

With A30U G33A, the self-cleavage amounted to 1.23. To A31U U45C belongs 1.17; to A31U U45A, 0.9; to G32A A140G, 1.61. With A30U C61G the figure was 0.08; with A31U A67U, 0.3; with A30C A50G, 1.21.

As for A31G U115C, the self-cleavage amounted to 1.37. With A30U U39C, the self-cleavage came out at 0.85.

Turning to A30U U39G, the self-cleavage was found to be 1.46. To A31U A42G belongs 1.46.

On to A30U C56U, for which the self-cleavage turned out to be 0.04.

A31U G70A: the self-cleavage turned out to be 0.26.

With G32A G97U, the self-cleavage was found to be 0.1. To U29C G126A belongs 0.77. With U29C G122A the figure was 1.68; with U29C G122U, 1.35; with A30U U134A, 0.68.

Consider A30U A65U, for which the self-cleavage came to 0.19. Turning to A31U A57U, the self-cleavage amounted to 0.24. With G32A A43G the figure was 1.25; with A30U U143G, 1.38; with A30U U143C, 0.77.

G32A U81A: the self-cleavage was 1.46. Regarding G32A U81G, the self-cleavage was determined as 1.36. With A30U A77U the figure was 0.98; with A31U G125U, 1.37. To A31U U91C belongs 0.38. To A31G U87A belongs 0.13; to A30C A138G, 1.84; to A30U U119C, 0.5. On to A30G U39C, for which the self-cleavage turned out to be 1.13. With A30G U39A, the self-cleavage turned out to be 0.98. With A30G A65U the figure was 0.39. In the case of A31G A50G, the self-cleavage stood at 1.42. With A31U A65U the figure was 0.21; with A31U A65G, 0.16; with A30G U46C, 1.06. To A30G U46A belongs 0.84; to A30U G40U, 0.97. G32A U47A: the self-cleavage turned out to be 1.37.

Turning to G32A U47C, the self-cleavage was found to be 1.58. To G32A A136G belongs 1.35. Regarding G32A A136U, the self-cleavage was found to be 0.45.

Consider A31G U112A, for which the self-cleavage is 1.61. With A30C A67C the figure was 0.21. To A30G A31G belongs 1.15. With A30G U73C the figure was 2.09.

With A31U C110A, the self-cleavage was determined as 0.91. With U29G A64G the figure was 0.6; with G32A A124G, 0.69; with G32A A124U, 0.

Consider G32A U102C, for which the self-cleavage stood at 1.62. As for G32A C71U, the self-cleavage was 0.91. Regarding G32A A42G, the self-cleavage was determined as 1.27. As to A30U A94C, the self-cleavage is 0. To A30U A94U belongs 0.34; to A31C U109C, 2.01. As for A30G A140C, the self-cleavage turned out to be 0.93. With G32A A138G the figure was 1.16. To U29C G82A belongs 1.44. With A30G C66U the figure was 0.05.

On to A31U A140G, for which the self-cleavage came out at 0.81. Consider A31U A140U, for which the self-cleavage came to 0.94. In the case of U29G C99A, the self-cleavage turned out to be 0.42.

As to A31C U87A, the self-cleavage came out at 0.07. A31G A69G: the self-cleavage worked out at 0.78. To A31G U132A belongs 0.94; to A31G U62C, 0.13.

Turning to G32A C113U, the self-cleavage amounted to 1.43. With A30G G135A the figure was 1.4.
